# Measured values: article PMC3621891, “Structural Insights into Omega-Class Glutathione Transferases: A Snapshot of Enzyme Reduction and Identification of a Non-Catalytic Ligandin Site” (PLoS ONE, 2013)
# B1: hGSTO1-1 C32A mutant (human omega-class glutathione transferase 1-1, active-site mutant) (enzyme)
# chain: MSGESARSLGKGSAPPGPVPEGSIRIYSMRFAPFAERTRLVLKAKGIRHEVININLKNKPEWFFKKNPFGLVPVLENSQGQLIYESAITCEYLDEAYPGKKLLPDDPYEKACQKMILELFSKVPSLVGSFIRSQNKEDYAGLKEEFRKEFTKLEEVLTNKKTTFFGGNSISMIDYLIWPWFERLEAMKLNECVDHTPKLKLWMAAMKEDPTVSALLTSEKDWQGFLELYLQNSPEACDYGL
# notes: human glutathione transferase omega 1 (hGSTO1), C32A active-site mutant; after cleavage no additional N-terminal residues; residues 4 to 241 are seen in the final model; Homodimer; the dimer is produced by two-fold crystallographic symmetry (one protomer in the asymmetric unit); Crystals held GSSG, 4NPG, DTT and sulfate; source: E. coli BL21 (DE3), purified (Ni-NTA agarose, cleavage by …)
# Target: the molecule itself
# Experiment: crystal structure; hanging-drop vapour diffusion at 4°C, 2.2 M ammonium sulfate, 100 mM sodium acetate pH 4.25 and 4.75; crystals soaked with 4NPG (one also with GSH); one protomer in the asymmetric unit, dimer by crystallographic two-fold
protein,measurement,value
B1,binding result,binds
